Here are results for 94 variants from the supplement of paper PMC10567573.

B1: SPOPL (parent)
chain: PDDKLTLFCEVSVVQDSVNISGHT
B2: KLHL14 (parent)
chain: NETGYLSSVECYNLETNEWRYVSS
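Further: lentivirally expressed fusions sorted by FACS into six bins by GFP to DsRed ratio, PSI derived from sequencing read proportions per bin multiplied by bin number.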

Variants of B1 are the subject of the first data set. The data set can be described thus: protein stability index of a GFP-peptide fusion (GPS, HEK-293T) (PSI 1-6); higher = more stable. Conditions: c terminus: a fixed tail appended.
For the variant PDDKLTLFNEVSVVQDSVNISGHT [C9N], the protein stability index was determined as 4.34.
On the same count and under the same terms, the value for PDDKLTLFTEVSVVQDSVNISGHT [C9T] was 3.83; that for PDDKLTLFKEVSVVQDSVNISGHT [C9K] was 4.34.
PDDKLTLFHEVSVVQDSVNISGHT [C9H]: the protein stability index was 4.09.
Same read-out and setting: the value for PDDKLTLFCEVSVVKDSVNISGHT [Q15K] was 2.12; that for PDDKLTLFCEVSVVGDSVNISGHT [Q15G] was 1.97; that for PDDKLTLFCEVSVVDDSVNISGHT [Q15D] was 3.19.
On to PDDKLTLFCEVSVVEDSVNISGHT [Q15E], for which the protein stability index was 3.4.
With PDDKLTLFCEVSVVPDSVNISGHT [Q15P], the protein stability index was 3.1.
Same read-out and setting: the value for PDDKLTLFCEVSVVNDSVNISGHT [Q15N] was 1.97.
Still for that read-out and setting: the value for PDDKLTLFCEVSVVQDSVNQSGHT [I20Q] was 3.49.
As for PDDKLTLFCEVSVVQDSVNVSGHT [I20V], the protein stability index amounted to 2.55.
For PDDKLTLFCEVSVVQDSVNDSGHT [I20D], the protein stability index was found to be 3.77.
PDDKLTLFCEVSVVQDSVNLSGHT [I20L]: the protein stability index is 2.56.
For PDDKLTLFCEVSVVQDSVNASGHT [I20A], the protein stability index was found to be 2.74.
Consider PDDKLTLFCEVSVVQDSVNTSGHT [I20T], for which the protein stability index was 3.2.
Still for that read-out and setting: under PDDKLTLFCEVSVVQDSVNKSGHT [I20K] stands 2.56.
Regarding PDDKLTLFCEVSVVQDSVNSSGHT [I20S], the protein stability index was 3.04.
On the same count and under the same terms, under PFDKLTLFCEVSVVQDSVNISGHT [D2F] stands 1.5.
Same read-out and setting: under PSDKLTLFCEVSVVQDSVNISGHT [D2S] stands 1.74; under PADKLTLFCEVSVVQDSVNISGHT [D2A], 1.61; under PDDKLTLFCEVSVVQDSVNISPHT [G22P], 2.07.
On to PDDKLTLFCEVSVVQDSVNISQHT [G22Q], for which the protein stability index was determined as 2.97.
On the same count and under the same terms, under PDDKLTLFCEVSVVQDSVNISCHT [G22C] stands 2.59.
Still for that read-out and setting: the value for PDDKLTLFCEVSVVQDSVNISFHT [G22F] was 3.28; that for PDDKLTLFCEVSVVQDSVNISSHT [G22S] was 2.05; that for PDDKDTLFCEVSVVQDSVNISGHT [L5D] was 4.41.
Same read-out and setting: the value for PDDKPTLFCEVSVVQDSVNISGHT [L5P] was 4.1; that for PDDKVTLFCEVSVVQDSVNISGHT [L5V] was 1.81; that for PDDKGTLFCEVSVVQDSVNISGHT [L5G] was 3.07.
Regarding PDDKETLFCEVSVVQDSVNISGHT [L5E], the protein stability index was 3.9.
Same read-out and setting: under PDDKRTLFCEVSVVQDSVNISGHT [L5R] stands 3.85; under PDDKCTLFCEVSVVQDSVNISGHT [L5C], 2.88.
Take PDDKITLFCEVSVVQDSVNISGHT [L5I]: the protein stability index amounted to 1.88.
On the same count and under the same terms, the value for PDDKSTLFCEVSVVQDSVNISGHT [L5S] was 3.63; that for PDDKYTLFCEVSVVQDSVNISGHT [L5Y] was 2.28; that for PDDKLTLFCEVSVVQDSVNISGHW [T24W] was 3.64.
Turning to PDDKLTLFCEVSVVQDSVNISGHF [T24F], the protein stability index was found to be 1.74.
The same measure, in the same setting: the value for PDDKLTLFCEVSVVQDSVNISGHI [T24I] was 2.27.
For PDDKLTLFCEVSVVQDSVNISGHD [T24D], the protein stability index came to 2.46.
On the same count and under the same terms, under PDDKLTLFCEVSVVQDSVSISGHT [N19S] stands 3.03.
The same measure, in the same setting: the value for PDDKLTLFCEVSVVQDSVPISGHT [N19P] was 2.29; that for PDDKLTLFCEVSVVQDSVTISGHT [N19T] was 1.35.
Still for that read-out and setting: under PDDKLTLFCEVSVVQDSVAISGHT [N19A] stands 2.53.
PDDKLTLFCEVSVVQDSVRISGHT [N19R]: the protein stability index was 1.2.
On the same count and under the same terms, the value for PDDKLTMFCEVSVVQDSVNISGHT [L7M] was 2.68.
On to PDDKLTPFCEVSVVQDSVNISGHT [L7P], for which the protein stability index worked out at 4.52.
Turning to PDDKLTSFCEVSVVQDSVNISGHT [L7S], the protein stability index was 3.49.
As to PDDKLTVFCEVSVVQDSVNISGHT [L7V], the protein stability index was 1.92.
Turning to PDDKLTEFCEVSVVQDSVNISGHT [L7E], the protein stability index came to 4.9.
In the case of PDDKLTIFCEVSVVQDSVNISGHT [L7I], the protein stability index came to 1.25.
The same measure, in the same setting: the value for PDDKLTQFCEVSVVQDSVNISGHT [L7Q] was 4.62; that for PDDKLTDFCEVSVVQDSVNISGHT [L7D] was 4.88.
Consider PDDKLTLFCEVSVVQDSVNIEGHT [S21E], for which the protein stability index stood at 2.44.
As for PDDKLTLFCEVSVVQDSVNINGHT [S21N], the protein stability index came to 2.2.
For PDDKLTLFCEVSVVQDSVNILGHT [S21L], the protein stability index was found to be 1.68.
Same read-out and setting: under PDDKLTLFCEVSVVQDSVNIGGHT [S21G] stands 2.74; under PDDKLTLFCEVSVVQDSVNIPGHT [S21P], 2.29.
The same measure, in the same setting: under PDDKLTLFCEVSVVQDSVNICGHT [S21C] stands 1.5; under PDDKLTLFCEVSVVQDSVNIAGHT [S21A], 2.29.
Same read-out and setting: under PDDKLTLFCEVSVVQDSVNIYGHT [S21Y] stands 1.85; under PDDKLTLFCEVSVVQDSVNIQGHT [S21Q], 3.3; under PDDKLTLFCEVSVVQDSVNIHGHT [S21H], 1.61.
As for PDDKLLLFCEVSVVQDSVNISGHT [T6L], the protein stability index turned out to be 1.73.
The same measure, in the same setting: under PDDKLPLFCEVSVVQDSVNISGHT [T6P] stands 3.47; under PDDKLKLFCEVSVVQDSVNISGHT [T6K], 3.34; under PDDKLNLFCEVSVVQDSVNISGHT [T6N], 2.96.
On the same count and under the same terms, under PDDKLQLFCEVSVVQDSVNISGHT [T6Q] stands 2.58; under PDDKLGLFCEVSVVQDSVNISGHT [T6G], 3.19.
Still for that read-out and setting: the value for PDDKLMLFCEVSVVQDSVNISGHT [T6M] was 1.79; that for PDDKLSLFCEVSVVQDSVNISGHT [T6S] was 2.32.
Take PDDKLCLFCEVSVVQDSVNISGHT [T6C]: the protein stability index came out at 1.81.
Regarding PDDKLELFCEVSVVQDSVNISGHT [T6E], the protein stability index is 2.33.
Same read-out and setting: the value for PDDKLWLFCEVSVVQDSVNISGHT [T6W] was 3.41.
On the same count and under the same terms, the value for PDDKLILFCEVSVVQDSVNISGHT [T6I] was 1.8.
On the same count and under the same terms, the value for PDDKLTLFCEGSVVQDSVNISGHT [V11G] was 4.76; that for PDDKLTLFCECSVVQDSVNISGHT [V11C] was 3.34.
With PDDKLTLFCEASVVQDSVNISGHT [V11A], the protein stability index was 4.34.
Regarding PDDKLTLFCEDSVVQDSVNISGHT [V11D], the protein stability index stood at 4.64.
The same measure, in the same setting: the value for PDDKLTLFCEKSVVQDSVNISGHT [V11K] was 4.85; that for PDDKLTLFCEQSVVQDSVNISGHT [V11Q] was 4.62.
Consider PDDKLTLFCEPSVVQDSVNISGHT [V11P], for which the protein stability index was found to be 4.58.
As to PDDKLTLFCEHSVVQDSVNISGHT [V11H], the protein stability index turned out to be 4.28.
On the same count and under the same terms, under PDDKLTLFCEVSVVQHSVNISGHT [D16H] stands 1.15; under PDDKLTLFCEVSVVQGSVNISGHT [D16G], 2.01; under PDDKLTLFCEVSVVQQSVNISGHT [D16Q], 1.27.
On the same count and under the same terms, under PDDKLTLFCEVSVVQRSVNISGHT [D16R] stands 1.21.

In the next data set the parent is B2. The data set is described as above. Conditions: c terminus: a fixed tail appended.
Consider NETGYLSSVECYNLETNEWRYVSP [S24P], for which the protein stability index is 4.2.
In the case of NETGYLSSVECYNLETNEWRYVSR [S24R], the protein stability index is 3.61.
Same read-out and setting: the value for NETGYLSSVECYNLETNEWRYVST [S24T] was 3.65; that for NETGYLSSVECYNLETNEWRYVSW [S24W] was 3.44; that for NETGYLSSVECYNLETNEWRYVSQ [S24Q] was 3.6.
In the case of NETGYLSSVECYNLETNEWRYVSV [S24V], the protein stability index is 3.38.
On the same count and under the same terms, the value for NETGYLSSVECYNLETNEWRYVSY [S24Y] was 3.19.
